Results taken from publication PMC7201828, “Comparison of Inhibitor and Substrate Selectivity between Rodent and Human Vascular Adhesion Protein-1” (Mediators of Inflammation, 2020).

Legend:
Assay in all cases: purified protein, by the assay type
[1] = substrate: NCc1ccccc1; conditions: pH 7.4, 37.0 °C
Description: (§1) The enzymatic activity of recombinant VAP-1 and inhibitor potency was determined using a variation of the fluorometric assay for measuring hydrogen peroxide formation [22]. Briefly, the assay measures the H2O2 generated during the oxidative deamination of an amine substrate (BA for inhibition purposes) by converting Amplex® Red to the fluorescent product, resorufin, via horseradish peroxidase (HRP). […] Stock solutions of Amplex Red (1 mM), HRP (10 U/mL), the substrates (200 μM BA for inhibition), and inhibitor were prepared in reaction buffer and added to the appropriate wells, that the final concentration in each well was 0.05 mM Amplex Red, 0.5 U/mL HRP, and 50 μM BA (saturating condition) in a total reaction volume of 0.1 mL.
(§2) Standard curves were prepared for each plate by serially diluting H2O2 in reaction buffer with equivalent concentrations of Amplex Red and HRP. A 10 μM solution of resorufin was prepared in reaction buffer and was dispensed in duplicate as the positive control for maximum fluorescence. Plates were incubated for 30 minutes at 37°C, protected from light under foil to minimize the resorufin artifactually formed when Amplex Red is exposed to light [28]. The plate was read at 530/35 emission and 590/35 excitation. The mean fluorescence of the background was subtracted from the mean fluorescence of the inhibitor concentration in the presence of BA. The percent control was calculated using equation (1). […] (1) %control=average fluorescence with inhibitor−background/average fluorescence of reaction without inhibitor−background×100, (2) %inhibition=100−%control.
(§3) Both substrates were incubated with recombinant VAP-1 in triplicate on three separate plates.

[2] = substrate: NCCc1ccccc1; conditions: other: recombinant human VAP-1, substrate; pH 7.4; 37.0 °C
Description: as §1, §2, §3

[3] = substrate: NCCc1ccc(O)cc1; conditions: pH 7.4, 37.0 °C
Description: as §1, §2, §3

[4] = other: recombinant mouse VAP-1, substrate
[5] = other: recombinant human VAP-1, substrate
[6] = other: recombinant rat VAP-1, substrate

B1: recombinant mouse VAP-1 (Mus musculus) (protein)
chain: RSGDGGGLSQPLHCPSVLPSVQPRTHPSQSQPFADLSPEELTAVMSFLTKHLGPGLVDAAQARPSDNCVFSVELQLPAKAAALAHLDRGGPPPVREALAIIFFGGQPKPNVSELVVGPLPHPSYMRDVTVERHGGPLPYYRRPVLDREYQDIEEMIFHRELPQASGLLHHCCFYKHQGQNLLTMTTAPRGLQSGDRATWFGLYYNLSGAGFYPHPIGLELLIDHKALDPALWTIQKVFYQGRYYESLTQLEDQFEAGLVNVVLVPNNGTGGSWSLKSSVPPGPAPPLQFHPQGPRFSVQGSQVSSSLWAFSFGLGAFSGPRIFDIRFQGERVAYEISVQEAIALYGGNSPASMSTCYVDGSFGIGKYSTPLIRGVDCPYLATYVDWHFLLESQAPKTLRDAFCVFEQNQGLPLRRHHSDFYSHYFGGVVGTVLVVRSVSTLLNYDYIWDMVFHPNGAIEVKFHATGYISSAFFFGAGEKFGNRVGAHTLGTVHTHSAHFKVDLDVAGLKNWAWAEDMAFVPTIVPWQPEYQMQRLQVTRKLLETEEEAAFPLGGATPRYLYLASNHSNKWGHRRGYRIQILSFAGKPLPQESPIEKAFTWGRYHLAVTQRKEEEPSSSSIFNQNDPWTPTVNFTDFISNETIAGEDLVAWVTAGFLHIPHAEDIPNTVTAGNSVGFFLRPYNFFDEDPSFHSADSIYFREGQDATACEVNPLACLSQTATCAPEIPAFSHGGFAYRDN
Km [1, 4]: 13.1 ± 11.4 µM | Vmax [1, 4]: 20.1 µmol/min/mg

B2: recombinant human VAP-1 (Homo sapiens) (protein)
chain: GRGGDGGEPSQLPHCPSVSPSAQPWTHPGQSQLFADLSREELTAVMRFLTQRLGPGLVDAAQARPSDNCVFSVELQLPPKAAALAHLDRGSPPPAREALAIVFFGRQPQPNVSELVVGPLPHPSYMRDVTVERHGGPLPYHRRPVLFQEYLDIDQMIFNRELPQASGLLHHCCFYKHRGRNLVTMTTAPRGLQSGDRATWFGLYYNISGAGFFLHHVGLELLVNHKALDPARWTIQKVFYQGRYYDSLAQLEAQFEAGLVNVVLIPDNGTGGSWSLKSPVPPGPAPPLQFYPQGPRFSVQGSRVASSLWTFSFGLGAFSGPRIFDVRFQGERLVYEISLQEALAIYGGNSPAAMTTRYVDGGFGMGKYTTPLTRGVDCPYLATYVDWHFLLESQAPKTIRDAFCVFEQNQGLPLRRHHSDLYSHYFGGLAETVLVVRSMSTLLNYDYVWDTVFHPSGAIEIRFYATGYISSAFLFGATGKYGNQVSEHTLGTVHTHSAHFKVDLDVAGLENWVWAEDMVFVPMAVPWSPEHQLQRLQVTRKLLEMEEQAAFLVGSATPRYLYLASNHSNKWGHPRGYRIQMLSFAGEPLPQNSSMARGFSWERYQLAVTQRKEEEPSSSSVFNQNDPWAPTVDFSDFINNETIAGKDLVAWVTAGFLHIPHAEDIPNTVTVGNGVGFFLRPYNFFDEDPSFYSADSIYFRGDQDAGACEVNPLACLPQAAACAPDLPAFSHGGFSHN
Km [2]: 5510 ± 5510 µM | Vmax [2]: 7.15 µmol/min/mg | Km [3, 5]: 299 µM | Vmax [3, 5]: 0.40 μmoles/min/mg prot | Km [1, 5]: 45.3 ± 50.7 µM | Vmax [1, 5]: 11.2 µmol/min/mg

B3: recombinant rat VAP-1 (Rattus norvegicus) (protein)
chain: RSGDGGRLSQPLHCPSVLPSVQPQTHPGQSQPFADLSPEELTAVMSFLIKHLGPGLVDAAQARPSDNCVFSVELQLPAKAAALAHLDRGGPPPVREALAIIFFGGQPKPNVSELVVGPLPHPSYMRDVTVERHGGPLPYYRRPVLTREYQDIQEMIFHRELPQASGLLHHCCFYKRQGHNLLKMTTAPRGLQSGDRATWFGIYYNLSGAGFYPHPIGLELLVDHKALDPALWTIQKVFYQGRYYESLTQLEDMFEAGLVNVVLVPDNGTGGSWSLKSSVPPGRAPPLQFHPEGPRFSVQGSQVRSSLWAFSFGLGAFSGPRIFDIRFQGERVAYEISVQEAIALYGGNSPASMSTCYMDGSFGIGKYSTPLTRGVDCPYLATYVDWHFLLESQTPKTLRDAFCVFEQNQGLPLRRHHSDFYSHYFGGVVETVLVVRSVATLLNYDYVWDMVFHSNGAIEVKFHATGYITSAFFFGAGEKFGNRVAEHTLGTVHTHNAHFKVDLDVAGLKNWAWAEDLAFVPMNVPWQPEFQMQRLQVTRKLLETEEEAAFPLGNATPRYLYLASNHSNKWGHRRGYRIQILSFAGKPLPQESPIEKAFTWGRYHLAVTQRKEEEPSSSSIYNQNDPWTPTVDFTDFISNETIAGEDLVAWVTAGFLHIPHAEDIPNTVTVGNGVGFFLRPYNFFDEDPSFYSPDSIYFRKDQDVTDCEVNSLACLSQTANCVPDLPAFSHGGFTYK
Km [3, 6]: 8.31 µM | Vmax [3, 6]: 1.19 μmoles/min/mg prot | Km [1, 6]: 4.38 ± 0.361 µM | Vmax [1, 6]: 20.2 µmol/min/mg
